Test: soluble on expression in E. coli; label from the status in PepcDB or PDB records

| Sequence | soluble on expression in E. coli |
| --- | --- |
| MSLQKNGYRIQFTSSRIRDLMYRTTFDPKKMDGDIILNLSLIDKKDLDDVLGIFKMVISSGLSVTPYVKVISEGESIGDMTIEKGKVGIGTVCSITIDGVLLKAGIPVNPKLGGVVQIRNGIPVRFTDVLTYVSTTVDPLEILMSQGITSVSEMLRTGSGKVLANLREAPMVARDEIESNLSDLLDAGFSGILEVGEPNTRVLDVPIERDHLGIVVIGGTNPMAVVQEYGIPIDTSAMSRLISFKEMSRIEDLVEGHHHHHH | soluble |
| MSLQKNNLHIIIAEDDFDDADMICETFNQNPNFGKVSLVANGEELLNYLKNASNESPDVILTDINMPIVDGIEALQQILNNSDLKNIPCFVYSTSINPSYKEKCDDLGVKAYLIKPYSFEAFAEIPKTILSIIQAEGHHHHHH | soluble |
| MSLQLRLALNQIDSTVGDIAGNAEAILRWTRHSAEQGAHLVAFPEMALTGYPVEDLALRSSFVEASRTALRELAARLAEEGFGELPVLVGYLDRSESAQPKYGQPAGAPRNAAAVLHRGRVALTFAKHHLPNYGVFDEFRYFVPGDTMPIVRLHGVDIALAICEDLWQDGGRVPAARSAGAGLLLSVNASPYERDKDDTRLELVRKRAQEAGCTTAYLAMIGGQDELVFDGDSIVVDRDGEVVARAPQFSEGCVVLDLDLPAAEAEPPTGVVDDGLRIDRLVISEEPLPAYEAELAGGYADRLDADEEVYSALVVGLRAYVAKNGFRSVLIGLSGGIDSALVAAIACDALGAQNVYGVSMPSKYSSDHSKGDAAELARRTGLNFRTVSIEPMFDAYMASLGLTGLAEENLQSRLRGTTLMAISNQEGHIVLAPGNKSELAVGYSTLYGDSVGAYGPIKDVYKTSIFRLAEWRNRAAAERGQTPPIPEASITKPPSAELRPGQVDTDSLPDYPVLDAILELYVDRDTGADAIVAAGYDRELVVKTLRMVDTAEYKRRQYPPGTKISAKGFGKDRRLPITNRWREGHHHHHH | soluble |
| MSLQNAYWLTNVRLETGYKFNNEVVTGTETALHHLLIQDGKIEKIVLADVPLQTEYETKDAKELLVLPSFVENHFHLDKTKLGGPWEACTPVKNIIERLELEQQELPILAQTTGERAELLLRNILNAGSTHIRTHVNIDPYIGLKNLESVRQTLENMKDAFTYEIVAFPQHGLLRTEAHSLMREAMKMGATLVGGVDPATVDNNIEKSLFDMMEIAVEANADVDLHLHDAGHLGIYTIKKLAQYTEEASWDGRVAVSHAFSLGDVSKEEGADMADLLAERGMSIITTVPINRNMPPVPLLTEKGVPISLGCDSMFDSWGPFGNADIFERVGRLAEKYRWMDEKSLASSLAYITGGKTPLDQEGNQVWPKVGDKADFVFLQATCSAEAIARRAKRPAVMRDGKIVAGSLQHVQGVLIEGHHHHHH | soluble |
| MSLQPVPDAGPWGDYLCDSPWALINSSIYAMKEIEPEPDFILWTGDDTPHVPDEKLGEAAVLEIVERLTKLIREVFPDTKVYAALGNHDFHPKNQFPAGSNNIYNQIAELWKPWLSNESIALFKKGAFYCEKLPGPSGAGRIVVLNTNLYYTSNALTADMADPGQQFQWLEDVLTDASKAGDMVYIVGHVPPGFFEKTQNKAWFREGFNEKYLKVVRKHHRVIAGQFFGHHHTDSFRMLYDDAGVPISAMFITPGVTPWKTTLPGVVNGANNPAIRVFEYDRATLSLKDMVTYFMNLSQANAQGTPRWELEYQLTEAYGVPDASAHSMHTVLDRIAGDQSTLQRYYVYNSVSEGHHHHHH | soluble |
| MSLRAVVTMGHGDLDQLVLHPDWPRPDPEPGEVLIRVGACGLNNTDVNTRSGWYSKTVTDATTGGAFDEVGEDDPTWGGAPITFPRIQGADVCGTIVAVGAGVDAARIGERVITDGWLRDADAPEDMNKTGYFGSERNGGFAEYTTIPSSNALDVNSTLSDAELATFSCSYSTAEGMLTRARVTADDTVLIPGASGGVGGALVQLAKRRGARVIAIASEGKHSDVAALGPDMILPRAPAHLRSALGDERITVVADVVGGPYWPSLIDILERGGRYTCSGAIAGPMVSLDLRTFYLRDLTFTGSTVIDLEVMPNIVRYIEEGAIKPSLAATYPLEDLRAAQSAFIAKEHTGNIVVTEGHHHHHH | not soluble |
| MSLRDESRLDKYVIKEILRINRHLPRRRKTLEELLREERPHVVNRDGTKHYFDRDELERLADILPRYLHGRLKLPILIELGYSGAAVIRGKAEVRVVCEVLGEEWRFSQDRVELNMLDVRKLRREFPTATQYMFSTEYIMGRPKVERREGHHHHHH | soluble |
| MSLRELQNALYFSEVVFGPNLEKIVGEKRLNFWLKLIGEDPENLKEFLSRKGNSFEEQTLPEKEAIVPNRLGEEALEKVREELEFLNTYSTKHVRRVKELGVQIPFEGILLPFISMYIEKFQQQQLRKKIGPIHEEIWTQIVQDITSKLNAILHRTLILELNVARVTSQLKGDTPEERFAYYSKTYLGKREVTHRLYSEYPVVLRLLFTTISHHISFITEILERVANDREAIETEFSPCSPIGTLASLHLNSGDAHHKQRTVTILEFSSSLKLVYKPRSLKVDGVFNGLLAFLNDRTGEVIKDQYCPKVLQRDGYGYVEFVTHQSCQSLEEVSDFYERLGSLMSLSYVLNSSDFHFENIIAHGPYPVLIDLETIIHNTADSSEETSTAMDRAFRMLNDSVLSTGMLPSSIYYRDQPNMKGLNVGGVSKSEGQKTPFKVNQIANRNTDEMRIEKDHVTLSSQKNLPIFQSAAMESVHFLDQIQKGFTSMYQWIEKNKQEFKEQVRKFEGVPVRAVLRSTTRYTELLKSSYHPDLLRSALDREVLLNRLTVDSVMTPYLKEIIPLEVEDLLNGDVPYFYTLPEERALYQEASAINSTFFTTSIFHKIDQKIDKLGIEDHTQQMKILHMSMLASNANHYADVADLEGHHHHHH | soluble |
| MSLRIGVIGLGRIGTIHAENLKMIDDAILYAISDVREDRLREMKEKLGVEKAYKDPHELIEDPNVDAVLVCSSTNTHSELVIACAKAKKHVFCEKPLSLNLADVDRMIEETKKADVILFTGFNRRFDRNFKKLKEAVENGTIGKPHVLRITSRDPAPPPLDYIRVSGGIFLDMTIHDFDMARYIMGEEVEEVFADGSVLVDEEIGKAGDVDTAVVVLRFKSGALGVIDNSRRAVYGYDQRIEVFGSKGRIFADNVRETTVVLTDEQGDRGSRYLYFFLERYRDSYLEELKTFIKNVKSGEPPAVSGEDGKMALLLGYAAKKSLEEKRSVKLEEVIGEGHHHHHH | soluble |
| MSLRIPTKPSPVFDAATDPAGSGKDLGNLPDWDLSDLYAAPDAPEVTRDLDRLKTLCADFAERYEGKLADLDAQGMLTCVTAHEEIDRIAGRLMSYAGLRYYQVTTDGERAQFLQNCQEKLTDYTTPLVFFSLEINRIPDDKLDALFEANADLARYKPIFDRLRAMRPYQLSDELEKFLHDQSAVGSAAWNKLFDETMARLTFSPEGEDEDLSLEATLNLLSEQKRSRREAGARELARVFGENLPLFARVHNTLAKEKEIEDRWRKMPSAQTARHLSNHVEPEVVEALRNAVVDAYPKLSHRYYALKAKWLGLETMEVWDRNAPLPMEEERVIDWPKAREMVLSAYAGFDPEMAAIAEPFFDRGWIDAGVKPGKAPGAFAHPTVTDAHPYVLLNYLGKPRDVMTLAHELGHGVHQVLAAGQGELLADTPLTLAETASVFGEMLTFRKLLAEAPDAAQKKVLLAGKVEDMINTVVRQIAFYDFECKLHEARRTRGELTTSQINELWMSVQGESLGPAFTFMDGYETFWSYIPHFVHSPFYVYAYAFGDGLVNALYAVYEEGDPDFQKKYFEMLKAGGSKHHSELLKPFGLDASDPKFWDKGLSMISGFIDELEAMEDEGHHHHHH | soluble |
| MSLRITRIRLYKTDLPYVDGSYGWGAGNAITVARASVVVIDTDAGLQGCGEFTPCGENYMIAHSEGVDAFARLAAPQLLGQDPRQVARMERLMDHLVQGHGYAKAPFDAAFWDILGQATGQPVWMLLGGKLCDGAPMYRVAPQRSEAETRAELARHRAAGYRQFQIKVGADWQSDIDRIRACLPLLEPGEKAMADANQGWRVDNAIRLARATRDLDYILEQPCRSYEECQQVRRVADQPMKLDECVTGLHMAQRIVADRGAEICCLKISNLGGLSKARRTRDFLIDNRMPVVAEDSWGGEIASAAVAHFAASTPEEFLINSTDLMNYNTRSTGLGGPTVHQGRLYASDTPGLGVTPDFNSLGAPVADWALPEGHHHHHH | soluble |
| MSLRKEPYLLVFGASVVDVFGFSKASYRPYNSTPGHVKISFGGVCRNIAENMARVGVNTNFMSILGNDEHGKSIVEHSKKIGYHMDDSMVIEGGSTPTYLAILDENGEMVSAIADMKSIGAMNTDFIDSKREIFENAEYTVLDSDNPEIMEYLLKNFKDKTNFILDPVSAEKASWVKHLIKDFHTIKPNRHEAEILAGFPITDTDDLIKASNYFLGLGIKKVFISLDADGIFYNDGVSCGKIKATEVDVKNVTGAGDSFVAGLGYGYMNKMPIEDIVKFAMTMSNITISHEETIHPDMALDTVLAKLEKTTWEEEKYDLNEGHHHHHH | soluble |
| MSLRKTVAFGFVGTVLDYAGRGSQRWSKWRPSLCICQQESLVIDRLELLHDARSRSLFETLKRDIASVSPETEVVSVEIELHNPWDFEEVYACLHDFARGYEFQPEKEDYLIHITTGTHVAQICWFLLAEARYLPARLIQSSPPRKKEQPRGAGEVTIIDLDLSLYNAIASRFAEERQQTLDEGHHHHHH | soluble |
| MSLRMKVFEIVKSSTENEIVRIHVELPRLKYLKDSNFEEKFNSEVEEKIKKFVNEVKGIAQEDHDKDVQHTPYEAYVSVDVRYEGKDFLSFVVYYYQFTGGAHGITFFETYNIDLKNSKVLKLYDIIKEEAEDTIKSNILKQIEQNNTDFFPDAPMNILKDDIFSREFTISKDGLIIMYPHYDLAPYASGMPEFVIPWNVIEKFLKYDILSLLKEGHHHHHH | soluble |
| MSLRPDMSRLTMIRFLTEIDYPPFNFTGADGNPAGFNVDLARALCDEIKITCTVQMRKFETLLDALASNRGDAIIASLAVTPQTRTKLDFTDPYYRTPARFVARKDAVMPEMRPEFLEGRKVGAVAGSAHEAYLKAMFTDAELHSYPNAEALRAALKRGEVDFIFGDAISLAFWINGTDSENCCAFSGAPFLESRYFGEGVGIAVRKGNDTLRQALNWALFRVWEKGQYTDLWLRYFSVSEGHHHHHH | soluble |
| MSLRRFKFQYKETIVTILTENEEFYKTAVKAILEARSEIEDYILHNPDFFTSYEPIECSGGEIINRMCNAAKIAGVGPMAAVAGTIAAYAVEKMIDAGAKLAVVDNGGDIVIHSDRELLVGIYPSKLAFKVPPVDYLAICTSSGKIGHSVSFGKADAATVVARDASVADALATALGNLIGDFGKKELEKTVSEFYGKYSDFVEGILVVKDELVALAGNLPSLAFAESKEDLITKGEGHHHHHH | soluble |
| MSLRTLPAIVMMTLYALAGLAHAQQPPWRVGFCQDTLDIPWRAAQAMTFSQTLQTDKRFQVILSDAKGNTTQQAIDLEHMVERGVHVLVTSPRDGAVLTPVISNIYRQGVPVVLLSRRTLDENFTTFIAPDDAEIGRQAARYLSKRLNEKGKILVIQGLGSASTTQQRTVGFIQELSLHPHMQIVAQPFANYKKEMAILIMESILAQKLPFDAIYVHSDAMALGAILALKRAGIDPTKLPIVSIDYTRAGRESLRKGEIDAIFTYPNGVKQGITAVKRILAGQPVNKFQTVPSTLVTQENINTLEPVEGHHHHHH | soluble |
